Source: PMC2173853 (The Journal of Cell Biology, 2002)
Like-named read-outs stand apart in the source and are kept apart here.

T1: heterodimeric GST–Sed5p–His10-Sly1p complex bound to beads (S. cerevisiae, UniProt Q01590;P22213)
T1 sequence 1: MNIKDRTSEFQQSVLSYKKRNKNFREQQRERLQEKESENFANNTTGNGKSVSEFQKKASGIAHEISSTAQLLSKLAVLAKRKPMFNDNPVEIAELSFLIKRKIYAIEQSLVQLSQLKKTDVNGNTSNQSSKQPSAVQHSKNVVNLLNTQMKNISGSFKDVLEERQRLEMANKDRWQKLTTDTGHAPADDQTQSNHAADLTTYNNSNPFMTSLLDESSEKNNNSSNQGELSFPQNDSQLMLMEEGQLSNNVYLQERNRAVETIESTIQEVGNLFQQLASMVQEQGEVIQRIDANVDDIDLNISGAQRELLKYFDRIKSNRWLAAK
T1 sequence 2: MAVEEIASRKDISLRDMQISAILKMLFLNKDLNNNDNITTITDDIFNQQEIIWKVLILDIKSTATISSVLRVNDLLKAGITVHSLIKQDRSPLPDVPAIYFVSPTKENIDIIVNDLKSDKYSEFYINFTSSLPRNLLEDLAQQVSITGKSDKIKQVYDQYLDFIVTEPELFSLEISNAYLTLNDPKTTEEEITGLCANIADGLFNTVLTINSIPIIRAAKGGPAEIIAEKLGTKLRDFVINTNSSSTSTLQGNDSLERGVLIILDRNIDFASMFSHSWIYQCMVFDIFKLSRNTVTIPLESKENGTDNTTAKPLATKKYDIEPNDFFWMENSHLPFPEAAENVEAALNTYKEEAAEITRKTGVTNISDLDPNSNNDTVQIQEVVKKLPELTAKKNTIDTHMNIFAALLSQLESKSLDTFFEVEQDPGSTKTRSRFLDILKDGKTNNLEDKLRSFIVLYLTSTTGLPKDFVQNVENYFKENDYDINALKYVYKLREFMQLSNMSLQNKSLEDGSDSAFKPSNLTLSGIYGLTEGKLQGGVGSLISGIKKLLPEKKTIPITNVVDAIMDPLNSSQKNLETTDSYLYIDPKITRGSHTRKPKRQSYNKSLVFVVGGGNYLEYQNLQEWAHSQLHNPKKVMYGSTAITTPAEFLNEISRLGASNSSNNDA

T2: GST–Sec22p (yeast, UniProt P22214)
T2 sequence: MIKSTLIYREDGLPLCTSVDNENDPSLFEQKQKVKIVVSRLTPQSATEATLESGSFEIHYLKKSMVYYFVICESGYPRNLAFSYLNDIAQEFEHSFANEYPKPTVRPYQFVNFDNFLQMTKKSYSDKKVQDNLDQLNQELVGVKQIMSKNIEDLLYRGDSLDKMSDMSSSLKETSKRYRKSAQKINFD

T3: GST–Ykt6p (amino acids 1–195) (S. cerevisiae, UniProt P36015 1-195)
T3 sequence: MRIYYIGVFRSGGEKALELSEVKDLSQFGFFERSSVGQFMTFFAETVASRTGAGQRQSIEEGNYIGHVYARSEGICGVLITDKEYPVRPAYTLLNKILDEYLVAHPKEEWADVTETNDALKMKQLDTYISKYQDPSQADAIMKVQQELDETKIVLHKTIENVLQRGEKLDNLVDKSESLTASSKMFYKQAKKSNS

T4: preassembled SNARE complex of GST–Sec22p, Sed5p, Bos1p and Bet1p (yeast, UniProt P22214;Q01590;P25385;P22804)
T4 sequence 1: T2 sequence
T4 sequence 2: T1 sequence 1
T4 sequence 3: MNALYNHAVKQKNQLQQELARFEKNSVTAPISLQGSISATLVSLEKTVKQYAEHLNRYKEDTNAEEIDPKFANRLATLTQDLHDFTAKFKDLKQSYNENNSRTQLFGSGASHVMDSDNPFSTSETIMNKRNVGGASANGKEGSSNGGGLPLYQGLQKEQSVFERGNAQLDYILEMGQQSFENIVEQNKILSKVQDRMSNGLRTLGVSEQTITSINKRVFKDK
T4 sequence 4: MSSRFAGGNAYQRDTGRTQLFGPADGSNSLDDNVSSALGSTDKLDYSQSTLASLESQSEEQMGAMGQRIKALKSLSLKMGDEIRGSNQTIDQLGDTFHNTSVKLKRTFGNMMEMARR

T5: Sly1p cleaved from purified GST–Sly1p (untagged soluble Sly1p) (S. cerevisiae, UniProt P22213 1-666)
T5 sequence: T1 sequence 2

B1: His6-Bos1p lacking the transmembrane (TM) (domain or fragment)
chain: T4 sequence 3
B2: His6-Sec22p (amino acids 1–188) (domain or fragment)
chain: T2 sequence
B3: His6-Bet1p lacking the COOH-terminal membrane anchor (domain or fragment)
chain: T4 sequence 4
B4: His10-Sly1p (NH2-terminally His10-tagged full-length Sly1p) (natural protein)
chain: T1 sequence 2
B5: GST–Sed5N (NH2-terminal domain) (domain or fragment)
chain: MNIKDRTSEFQQSVLSYKKRNKNFREQQRERLQEKESENFANNTTGNGKSVSEFQKKASGIAHEISSTAQLLSKLAVLAKRKPMFNDNPVEIAELSFLIKRKIYAIEQSLVQLSQLKKTDVNGNTSNQSSKQPSAVQHSKNVVNLLNTQMKNISGSFKDVLEERQRLEMANKDRWQKLTTDTGHAPADDQTQSNHAADLTTYNNSNPFMTSLLDESSEKNNNSSNQGELSFPQNDSQLMLMEEGQLSNNV
B6: His6-Sed5p (NH2-terminally His6-tagged Sed5p lacking the COOH-terminal membrane anchor) (domain or fragment)
chain: T1 sequence 1
B7: His6-Sec17p (full length) (natural protein)
chain: MSDPVELLKRAEKKGVPSSGFMKLFSGSDSYKFEEAADLCVQAATIYRLRKELNLAGDSFLKAADYQKKAGNEDEAGNTYVEAYKCFKSGGNSVNAVDSLENAIQIFTHRGQFRRGANFKFELGEILENDLHDYAKAIDCYELAGEWYAQDQSVALSNKCFIKCADLKALDGQYIEASDIYSKLIKSSMGNRLSQWSLKDYFLKKGLCQLAATDAVAAARTLQEGQSEDPNFADSRESNFLKSLIDAVNEGDSEQLSEHCKEFDNFMRLDKWKITILNKIKESIQQQEDDLL
B8: preformed Sed5p–Sly1p heterodimer in solution (His-Sly1p–His-Sed5p) (complex)
chain 1: T1 sequence 2
chain 2: T1 sequence 1
B9: GST–Sed5p (entire cytosolic region) (domain or fragment)
chain: T1 sequence 1

What was measured:
Experiment in all cases: pull-down
[1] = target: T1, heterodimeric GST–Sed5p–His10-Sly1p …
[2] = target: B9
GST–Sec22p [3] = target: T2, GST–Sec22p
[4] = target: T3, GST–Ykt6p (amino acids 1–195)
[5] = target: T4, preassembled SNARE complex of …
[6] = target: T5, Sly1p cleaved from purified GST–Sly1p …
GST–Sec22p [7] = target: T2, GST–Sec22p; remark: listed apart in the source
GST–Sec22p [8] = target: T2, GST–Sec22p; remark: listed apart in the source
GST–Sec22p [9] = target: T2, GST–Sec22p; remark: listed apart in the source
[10] = target: preassembled SNARE complex of GST–Sec22p, Sed5p, Bos1p and Bet1p with Sly1p (yeast | S. cerevisiae, UniProt P22214;Q01590;P25385;P22804;P22213)
[11] = target: B4

B1
stoichiometry N [1]: 1.4 per Sed5p | stoichiometry N [2]: 1.3 per Sed5p | stoichiometry of Sly1p–Sed5p–Bos1p–Sec22p–Bet1p in the isolated complex (GST–Sec22p [3]): 0.8 molar ratio (GST–Sec22p = 1.4)

B2
stoichiometry N [1]: 1.4 per Sed5p | stoichiometry N [2]: 1.3 per Sed5p | binding result [4]: binds

B3
stoichiometry N [1]: 1.3 per Sed5p | stoichiometry N [2]: 1.5 per Sed5p | stoichiometry of Sly1p–Sed5p–Bos1p–Sec22p–Bet1p in the isolated complex (GST–Sec22p [3]): 1.3 molar ratio (GST–Sec22p = 1.4)

B4
stoichiometry N [2]: 1.2 per Sed5p | stoichiometry of Sly1p–Sed5p–Bos1p–Sec22p–Bet1p in the isolated complex [5]: 1 molar ratio (GST–Sec22p = 1.4)

B5
binding result [6]: binds

B6
stoichiometry N (GST–Sec22p [7]): 1.1 Sed5p per Sec22p | stoichiometry N (GST–Sec22p [8]): 0.3 Sed5p per Sec22p | stoichiometry of Sly1p–Sed5p–Bos1p–Sec22p–Bet1p in the isolated complex (GST–Sec22p [3]): 1.2 molar ratio (GST–Sec22p = 1.4) | stoichiometry N (GST–Sec22p [9]): 0.5 Sed5p per Sec22p

B7
stoichiometry N [5]: 3.3 Sec17p per Sed5p | stoichiometry N [10]: 2.7 Sec17p per Sed5p

B8
stoichiometry N (GST–Sec22p [7]): 0.99 Sed5p per Sec22p | stoichiometry N (GST–Sec22p [8]): 0.3 Sed5p per Sec22p | stoichiometry N (GST–Sec22p [9]): 0.44 Sed5p per Sec22p

B9
binding result [11]: binds
